The values below come from US20110300131A1.

The target in the test is T1, CD70 expressed by cancer cell lines and tumor tissues (786-O, SK-OV-3/SKOV-3, Caki-1, PANC-1 and others) (UniProt P32970).
T1 sequence (looked up): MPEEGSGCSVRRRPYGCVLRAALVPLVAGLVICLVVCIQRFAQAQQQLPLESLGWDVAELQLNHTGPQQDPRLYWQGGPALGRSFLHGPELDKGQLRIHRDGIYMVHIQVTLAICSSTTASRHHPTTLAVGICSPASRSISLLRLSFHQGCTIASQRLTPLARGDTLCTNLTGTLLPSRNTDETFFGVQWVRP
As to the kind of experiment: cell-based or functional assay.

With h1F6mc-MMAF(4) (antibody), the IC50, viability of SKOV-3 cells after 96 hours (Promega CelltiterGlo) was found to be 29 ng/mL.

B1: h1F6vc-MMAF(4) (antibody, INN chains, looked up, V domains shown)
VH: QVQLVQSGAEVKKPGASVKVSCKASGYTFTNYGMNWVRQAPGQGLKWMGWINTYTGEPTYADAFKGRVTMTRDTSISTAYMELSRLRSDDTAVYYCARDYGDYGMDYWGQGTTVTVSS
VL: DIVMTQSPDSLAVSLGERATINCRASKSVSTSGYSFMHWYQQKPGQPPKLLIYLASNLESGVPDRFSGSGSGTDFTLTISSLQAEDVAVYYCQHSREVPWTFGQGTKVEIK
modifications: vc-MMAF, 4 drugs per antibody
Molecule B1 gave an IC50, viability of SKOV-3 cells after 96 hours (Promega CelltiterGlo) of 5 ng/mL.

B2: h1F6mc-MMAF(8) (antibody, INN chains, looked up, V domains shown)
VH: QVQLVQSGAEVKKPGASVKVSCKASGYTFTNYGMNWVRQAPGQGLKWMGWINTYTGEPTYADAFKGRVTMTRDTSISTAYMELSRLRSDDTAVYYCARDYGDYGMDYWGQGTTVTVSS
VL: DIVMTQSPDSLAVSLGERATINCRASKSVSTSGYSFMHWYQQKPGQPPKLLIYLASNLESGVPDRFSGSGSGTDFTLTISSLQAEDVAVYYCQHSREVPWTFGQGTKVEIK
modifications: mc-MMAF, 8 drugs per antibody
For B2, the IC50, viability of SKOV-3 cells after 96 hours (Promega CelltiterGlo) turned out to be 12 ng/mL.

B3: h1F6vc-MMAE(4) (antibody, INN chains, looked up, V domains shown)
VH: QVQLVQSGAEVKKPGASVKVSCKASGYTFTNYGMNWVRQAPGQGLKWMGWINTYTGEPTYADAFKGRVTMTRDTSISTAYMELSRLRSDDTAVYYCARDYGDYGMDYWGQGTTVTVSS
VL: DIVMTQSPDSLAVSLGERATINCRASKSVSTSGYSFMHWYQQKPGQPPKLLIYLASNLESGVPDRFSGSGSGTDFTLTISSLQAEDVAVYYCQHSREVPWTFGQGTKVEIK
modifications: vc-MMAE, 4 drugs per antibody
Turning to B3, the IC50, viability of SKOV-3 cells after 96 hours (Promega CelltiterGlo) worked out at 60 ng/mL.
